Data taken from patent US12195506B2, “Immunotherapy with A*01 restricted peptides and combination of peptides against cancers and related methods” (Immatics Biotechnologies GmbH, priority 2018, dated 2025).

The substances below were run against HLA-A*01:01 (Homo sapiens, UniProt P04439, A114D/A174V/A182V/D101N/D185E/E176A/E190D/L180R/Q94H/R68K/S129P/T187R/V100A/V91M/W191G) (assay: MHC binding assay: UV-ligand exchange, ELISA of stabilized MHC complexes (peptide exchange yield)). Conditions: binding to HLA-A*01:01, UV-ligand exchange.
From the text: Candidate peptides for T cell based therapies according to the present invention were further tested for their MHC binding capacity (affinity). The individual peptide-MHC complexes were produced by UV-ligand exchange, where a UV-sensitive peptide is cleaved upon UV-irradiation and exchanged with the peptide of interest as analyzed. Only peptide candidates that can effectively bind and stabilize the peptide-receptive MHC molecules prevent dissociation of the MHC complexes. To determine the yield of the exchange reaction, an ELISA was performed based on the detection of the light chain (β2m) of stabilized MHC complexes. The assay was performed as generally described in Rodenko et al. (Rodenko et al., 2006)
96 well MAXISorp plates (NUNC) were coated over night with 2 ug/ml streptavidin in PBS at room temperature, washed 4× and blocked for 1 h at 37° C. in 2% BSA containing blocking buffer. Refolded HLA-A*02:01/MLA-001 monomers served as standards, covering the range of 15-500 ng/ml. Peptide-MHC monomers of the UV-exchange reaction were diluted 100-fold in blocking buffer. Samples were incubated for 1 h at 37° C., washed four times, incubated with 2 ug/ml HRP conjugated anti-β2m for 1 h at 37° C., washed again and detected with TMB solution that is stopped with […]. Absorption was measured at 450 nm.

Row | Peptide exchange | Substance
1 | ++ (>20% = ++) | 89 (EVYDGREHSAY; listed as Homo sapiens) [compound 89]
2 | ++ (>20% = ++) | 90 (YEDHFPLLF; listed as Homo sapiens) [compound 90]
3 | ++ (>20% = ++) | 92 (TTDDTTAMASAS; listed as Homo sapiens) [compound 92]
4 | +++ (>50 = +++) | 93 (HLKILSPIY; listed as Homo sapiens) [compound 93]
5 | ++ (>20% = ++) | 94 (KPSAVKDSIY; listed as Homo sapiens) [compound 94]
6 | ++ (>20% = ++) | 95 (SSDPKAVMF; listed as Homo sapiens) [compound 95]
7 | ++ (>20% = ++) | 97 (FPAPPAHWFY; listed as Homo sapiens) [compound 97]
8 | ++ (>20% = ++) | 98 (NFSDLVFTY; listed as Homo sapiens) [compound 98]
9 | ++ (>20% = ++) | 99 (AADSNPSEL; listed as Homo sapiens) [compound 99]
10 | +++ (>50 = +++) | 100 (TTSSAISWILY; listed as Homo sapiens) [compound 100]
11 | ++ (>20% = ++) | 101 (SITDVDFIY; listed as Homo sapiens) [compound 101]
12 | ++ (>20% = ++) | 102 (STIRGELFF; listed as Homo sapiens) [compound 102]
13 | +++ (>50 = +++) | 103 (ITDTLIHLM; listed as Homo sapiens) [compound 103]
14 | ++ (>20% = ++) | 104 (ITDTLIHL; listed as Homo sapiens) [compound 104]
15 | ++ (>20% = ++) | 105 (VVFDKSDLAKY; listed as Homo sapiens) [compound 105]
16 | +++ (>50 = +++) | 106 (EVVEGKEWGSFY; listed as Homo sapiens) [compound 106]
17 | ++++ (>75% = ++++) | 107 (TTENSGNYY; listed as Homo sapiens) [compound 107]
18 | ++ (>20% = ++) | 108 (NSNLKFLEV; listed as Homo sapiens) [compound 108]
19 | ++ (>20% = ++) | 109 (ISEDKSISF; listed as Homo sapiens) [compound 109]
20 | ++ (>20% = ++) | 110 (IGDKVDAVY; listed as Homo sapiens) [compound 110]
21 | ++ (>20% = ++) | 111 (TPIPFDKILY; listed as Homo sapiens) [compound 111]
22 | ++ (>20% = ++) | 112 (KASSVSAEDGY; listed as Homo sapiens) [compound 112]
23 | ++++ (>75% = ++++) | 113 (ASCRSSAEY; listed as Homo sapiens) [compound 113]
24 | ++ (>20% = ++) | 114 (AVAAAAGASLY; listed as Homo sapiens) [compound 114]
25 | ++ (>20% = ++) | 115 (NEIDIHSIYFY; listed as Homo sapiens) [compound 115]

Row | Peptide exchange | Substance
26 | ++ (>20% = ++) | 116 (RSDIGEFEW; listed as Homo sapiens) [compound 116]
27 | +++ (>50 = +++) | 117 (SPAKQFNIY; listed as Homo sapiens) [compound 117]
28 | +++ (>50 = +++) | 118 (LTWAHSAKY; listed as Homo sapiens) [compound 118]
29 | ++ (>20% = ++) | 119 (TVFDENLSRY; listed as Homo sapiens) [compound 119]
30 | ++ (>20% = ++) | 121 (SADEAHGLL; listed as Homo sapiens) [compound 121]
31 | ++ (>20% = ++) | 122 (ISEAPLTEV; listed as Homo sapiens) [compound 122]
32 | ++ (>20% = ++) | 123 (LLKAKDILY; listed as Homo sapiens) [compound 123]
33 | ++ (>20% = ++) | 124 (FLKVTGYDKDDY; listed as Homo sapiens) [compound 124]
34 | ++++ (>75% = ++++) | 125 (FQYELRELY; listed as Homo sapiens) [compound 125]
35 | ++++ (>75% = ++++) | 126 (TTDPKKFQY; listed as Homo sapiens) [compound 126]
36 | + (>10% =+) | 127 (VPFNLITEY; listed as Homo sapiens) [compound 127]
37 | ++++ (>75% = ++++) | 128 (YTEFVDATFTK; listed as Homo sapiens) [compound 128]
38 | ++ (>20% = ++) | 129 (STIDFRAGF; listed as Homo sapiens) [compound 129]
39 | ++ (>20% = ++) | 130 (YIGLKGLYF; listed as Homo sapiens) [compound 130]
40 | ++ (>20% = ++) | 131 (LEDGIEQSAY; listed as Homo sapiens) [compound 131]
41 | +++ (>50 = +++) | 132 (RTHIGYKVY; listed as Homo sapiens) [compound 132]
42 | +++ (>50 = +++) | 133 (ITDVGPGNY; listed as Homo sapiens) [compound 133]
43 | ++ (>20% = ++) | 134 (SAPSSSGSPLY; listed as Homo sapiens) [compound 134]
44 | ++ (>20% = ++) | 135 (TFDKQIVLL; listed as Homo sapiens) [compound 135]
45 | +++ (>50 = +++) | 136 (RRLNFSGFGY; listed as Homo sapiens) [compound 136]
46 | +++ (>50 = +++) | 137 (EAYLERIGY; listed as Homo sapiens) [compound 137]
47 | +++ (>50 = +++) | 138 (IPVHDSVGVTY; listed as Homo sapiens) [compound 138]
48 | ++ (>20% = ++) | 139 (PVHDSVGVTY; listed as Homo sapiens) [compound 139]
49 | ++ (>20% = ++) | 140 (SQHIFTVSY; listed as Homo sapiens) [compound 140]
50 | ++ (>20% = ++) | 141 (DAVAPGREY; listed as Homo sapiens) [compound 141]

Row | Peptide exchange | Substance
51 | +++ (>50 = +++) | 142 (IEKFAVLY; listed as Homo sapiens) [compound 142]
52 | ++ (>20% = ++) | 143 (HVSGQMLYF; listed as Homo sapiens) [compound 143]
53 | ++ (>20% = ++) | 144 (RTIEGDFLW; listed as Homo sapiens) [compound 144]
54 | +++ (>50 = +++) | 145 (LSDAVHVEF; listed as Homo sapiens) [compound 145]
55 | ++ (>20% = ++) | 146 (LCATVCGTEQY; listed as Homo sapiens) [compound 146]
56 | +++ (>50 = +++) | 147 (AQVQDTGRY; listed as Homo sapiens) [compound 147]
57 | + (>10% =+) | 148 (GTKQWVHARY; listed as Homo sapiens) [compound 148]
58 | ++ (>20% = ++) | 149 (PIMSSSQALY; listed as Homo sapiens) [compound 149]
59 | ++ (>20% = ++) | 150 (FTTLSDLQTNMA; listed as Homo sapiens) [compound 150]
60 | ++ (>20% = ++) | 151 (YEVDTKLLSL; listed as Homo sapiens) [compound 151]
61 | ++ (>20% = ++) | 152 (YLEDRPLSQ; listed as Homo sapiens) [compound 152]
62 | ++ (>20% = ++) | 153 (HSIEVFTHY; listed as Homo sapiens) [compound 153]
63 | +++ (>50 = +++) | 154 (SIEVFTHY; listed as Homo sapiens) [compound 154]
64 | +++ (>50 = +++) | 155 (HTMEVTVY; listed as Homo sapiens) [compound 155]
65 | ++ (>20% = ++) | 156 (STALSILLL; listed as Homo sapiens) [compound 156]
66 | ++++ (>75% = ++++) | 157 (GLIEVVTGY; listed as Homo sapiens) [compound 157]
67 | +++ (>50 = +++) | 158 (EVTDRNMLAF; listed as Homo sapiens) [compound 158]
68 | ++ (>20% = ++) | 159 (RQAPGPARDY; listed as Homo sapiens) [compound 159]
69 | ++ (>20% = ++) | 160 (EVLGEEMYAY; listed as Homo sapiens) [compound 160]
70 | ++ (>20% = ++) | 161 (EAAPDIMHY; listed as Homo sapiens) [compound 161]
71 | ++++ (>75% = ++++) | 162 (IADNPQLSFY; listed as Homo sapiens) [compound 162]
72 | ++ (>20% = ++) | 163 (KIRAEVLSHY; listed as Homo sapiens) [compound 163]
73 | ++ (>20% = ++) | 164 (KLAGTVFQY; listed as Homo sapiens) [compound 164]
74 | ++ (>20% = ++) | 165 (VSVYNSYPY; listed as Homo sapiens) [compound 165]
75 | ++++ (>75% = ++++) | 166 (YHRICELLSDY; listed as Homo sapiens) [compound 166]
